{"source": "paper PMC10786891", "about": "“Massively parallel profiling of RNA-targeting CRISPR-Cas13d”"}
{"target": "T1, EsCas13d, nuclease-dead (Eubacterium siraeum, UniProt B0MS50, R295A;H300A;R849A;H854A)", "T1 sequence": "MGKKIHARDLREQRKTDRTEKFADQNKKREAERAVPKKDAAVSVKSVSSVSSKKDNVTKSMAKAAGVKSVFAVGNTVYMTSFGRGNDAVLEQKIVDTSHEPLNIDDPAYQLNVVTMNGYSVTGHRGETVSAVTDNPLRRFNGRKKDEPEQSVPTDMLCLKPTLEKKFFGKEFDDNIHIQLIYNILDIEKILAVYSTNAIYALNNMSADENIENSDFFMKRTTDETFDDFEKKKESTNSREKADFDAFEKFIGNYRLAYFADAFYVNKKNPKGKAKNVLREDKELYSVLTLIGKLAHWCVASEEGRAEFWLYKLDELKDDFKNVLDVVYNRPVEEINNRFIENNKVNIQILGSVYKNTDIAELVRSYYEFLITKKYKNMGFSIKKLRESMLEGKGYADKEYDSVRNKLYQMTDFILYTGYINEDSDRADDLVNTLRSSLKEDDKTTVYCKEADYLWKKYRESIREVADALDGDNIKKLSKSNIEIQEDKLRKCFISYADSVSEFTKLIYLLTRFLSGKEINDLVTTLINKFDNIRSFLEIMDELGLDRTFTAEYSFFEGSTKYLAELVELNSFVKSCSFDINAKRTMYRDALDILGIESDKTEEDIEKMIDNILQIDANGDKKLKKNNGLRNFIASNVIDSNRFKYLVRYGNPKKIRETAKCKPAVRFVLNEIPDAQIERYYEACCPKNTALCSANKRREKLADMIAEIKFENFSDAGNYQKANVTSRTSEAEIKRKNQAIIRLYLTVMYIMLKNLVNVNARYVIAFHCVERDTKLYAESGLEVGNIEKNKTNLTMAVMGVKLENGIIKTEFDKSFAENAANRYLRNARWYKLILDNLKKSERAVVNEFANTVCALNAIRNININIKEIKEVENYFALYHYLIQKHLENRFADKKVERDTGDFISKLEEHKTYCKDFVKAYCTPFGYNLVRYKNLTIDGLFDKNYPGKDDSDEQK", "assay": "crRNA (strand 1, pre-loaded); Mg2+; 40 mM Tris-HCl pH 7.5, 150 mM NaCl, 6 mM MgCl2, 1 mM DTT, 0.1% Tween-20, 0.2 mg/ml BSA; 25 C; 10 min per concentration, then washed", "conditions": "tags: His6-TwinStrep-SUMO cleaved; N-terminal SNAP kept (SNAP-Surface 488); label: 3' end held by stalled T7 RNA polymerase", "units": {"Kd": "nM"}}
{"binder": "target 1 insA 3' of 21,insU 3' of 5 (mixed) RNA 1: CACCCGUGCAAAAAUGCAGGGGUCUAAAACUGAGCGGAUAACCUCUCUAUGG RNA 2: GGGAAUGGAUCCACAUCUACGAAUUCGUACCAAUAGAGAGGUUAUCCGUCUCACCGAGAUCGGAAGAGCACACGU", "Kd": "30 ± 5"}
{"binder": "target 1 insU 3' of 17,insA 3' of 2 (mixed) RNA 1: CACCCGUGCAAAAAUGCAGGGGUCUAAAACUGAGCGGAUAACCUCUCUAUGG RNA 2: GGGAAUGGAUCCACAUCUACGAAUUCGUACCAUAGUAGAGGUUAUCCGCUCAACCGAGAUCGGAAGAGCACACGU", "Kd": "17.6 ± 1.8"}
{"binder": "target 1 del4,del9 (mixed) RNA 1: CACCCGUGCAAAAAUGCAGGGGUCUAAAACUGAGCGGAUAACCUCUCUAUGG RNA 2: GGGAAUGGAUCCACAUCUACGAAUUCGUACCAUAGAGAGGUUUCCGUCACCGAGAUCGGAAGAGCACACGU", "Kd": "78 ± 15"}
{"binder": "target 1 insU 3' of 17,insC 3' of 1 (mixed) RNA 1: CACCCGUGCAAAAAUGCAGGGGUCUAAAACUGAGCGGAUAACCUCUCUAUGG RNA 2: GGGAAUGGAUCCACAUCUACGAAUUCGUACCAUAGUAGAGGUUAUCCGCUCACCCGAGAUCGGAAGAGCACACGU", "Kd": "18 ± 2.4"}
{"binder": "target 1 insC 3' of 11,insU 3' of 6 (mixed) RNA 1: CACCCGUGCAAAAAUGCAGGGGUCUAAAACUGAGCGGAUAACCUCUCUAUGG RNA 2: GGGAAUGGAUCCACAUCUACGAAUUCGUACCAUAGAGAGGUCUAUCCUGCUCACCGAGAUCGGAAGAGCACACGU", "Kd": "69 ± 8"}
{"binder": "target 1 insA 3' of 19,insU 3' of 15 (mixed) RNA 1: CACCCGUGCAAAAAUGCAGGGGUCUAAAACUGAGCGGAUAACCUCUCUAUGG RNA 2: GGGAAUGGAUCCACAUCUACGAAUUCGUACCAUAAGAGUAGGUUAUCCGCUCACCGAGAUCGGAAGAGCACACGU", "Kd": "23.2 ± 2.6"}
{"binder": "target 1 insA 3' of 15,insC 3' of 13 (mixed) RNA 1: CACCCGUGCAAAAAUGCAGGGGUCUAAAACUGAGCGGAUAACCUCUCUAUGG RNA 2: GGGAAUGGAUCCACAUCUACGAAUUCGUACCAUAGAGAAGCGUUAUCCGCUCACCGAGAUCGGAAGAGCACACGU", "Kd": "16.4 ± 2.3"}
{"binder": "target 1 insA 3' of 21,insU 3' of 18 (mixed) RNA 1: CACCCGUGCAAAAAUGCAGGGGUCUAAAACUGAGCGGAUAACCUCUCUAUGG RNA 2: GGGAAUGGAUCCACAUCUACGAAUUCGUACCAAUAUGAGAGGUUAUCCGCUCACCGAGAUCGGAAGAGCACACGU", "Kd": "46 ± 7"}
{"binder": "target 1 insG 3' of 7,insG 3' of 1 (mixed) RNA 1: CACCCGUGCAAAAAUGCAGGGGUCUAAAACUGAGCGGAUAACCUCUCUAUGG RNA 2: GGGAAUGGAUCCACAUCUACGAAUUCGUACCAUAGAGAGGUUAUCGCGCUCAGCCGAGAUCGGAAGAGCACACGU", "Kd": "6.65 ± 0.35"}
{"binder": "target 1 insG 3' of 7,insC 3' of 1 (mixed) RNA 1: CACCCGUGCAAAAAUGCAGGGGUCUAAAACUGAGCGGAUAACCUCUCUAUGG RNA 2: GGGAAUGGAUCCACAUCUACGAAUUCGUACCAUAGAGAGGUUAUCGCGCUCACCCGAGAUCGGAAGAGCACACGU", "Kd": "7.6 ± 0.5"}
{"binder": "target 1 U10A,A16C (mixed) RNA 1: CACCCGUGCAAAAAUGCAGGGGUCUAAAACUGAGCGGAUAACCUCUCUAUGG RNA 2: GGGAAUGGAUCCACAUCUACGAAUUCGUACCAUAGCGAGGUAAUCCGCUCACCGAGAUCGGAAGAGCACACGU", "Kd": "68 ± 10"}
{"binder": "target 1 insU 3' of 20,insG 3' of 11 (mixed) RNA 1: CACCCGUGCAAAAAUGCAGGGGUCUAAAACUGAGCGGAUAACCUCUCUAUGG RNA 2: GGGAAUGGAUCCACAUCUACGAAUUCGUACCAUUAGAGAGGUGUAUCCGCUCACCGAGAUCGGAAGAGCACACGU", "Kd": "51 ± 12"}
{"binder": "target 1 insG 3' of 7,insA 3' of 2 (mixed) RNA 1: CACCCGUGCAAAAAUGCAGGGGUCUAAAACUGAGCGGAUAACCUCUCUAUGG RNA 2: GGGAAUGGAUCCACAUCUACGAAUUCGUACCAUAGAGAGGUUAUCGCGCUCAACCGAGAUCGGAAGAGCACACGU", "Kd": "6.36 ± 0.31"}
{"binder": "target 1 insU 3' of 21,insG 3' of 9 (mixed) RNA 1: CACCCGUGCAAAAAUGCAGGGGUCUAAAACUGAGCGGAUAACCUCUCUAUGG RNA 2: GGGAAUGGAUCCACAUCUACGAAUUCGUACCUAUAGAGAGGUUAGUCCGCUCACCGAGAUCGGAAGAGCACACGU", "Kd": "77 ± 19"}
{"binder": "target 1 U10G,A14G (mixed) RNA 1: CACCCGUGCAAAAAUGCAGGGGUCUAAAACUGAGCGGAUAACCUCUCUAUGG RNA 2: GGGAAUGGAUCCACAUCUACGAAUUCGUACCAUAGAGGGGUGAUCCGCUCACCGAGAUCGGAAGAGCACACGU", "Kd": "23.3 ± 1.3"}
{"binder": "target 1 insC 3' of 12 (mixed) RNA 1: CACCCGUGCAAAAAUGCAGGGGUCUAAAACUGAGCGGAUAACCUCUCUAUGG RNA 2: GGGAAUGGAUCCACAUCUACGAAUUCGUACCAUAGAGAGGCUUAUCCGCUCACCGAGAUCGGAAGAGCACACGU", "Kd": "8.3 ± 0.5"}
{"binder": "target 1 del11 (mixed) RNA 1: CACCCGUGCAAAAAUGCAGGGGUCUAAAACUGAGCGGAUAACCUCUCUAUGG RNA 2: GGGAAUGGAUCCACAUCUACGAAUUCGUACCAUAGAGAGGUAUCCGCUCACCGAGAUCGGAAGAGCACACGU", "Kd": "15.9 ± 0.9"}
{"binder": "target 1 del3,del7 (mixed) RNA 1: CACCCGUGCAAAAAUGCAGGGGUCUAAAACUGAGCGGAUAACCUCUCUAUGG RNA 2: GGGAAUGGAUCCACAUCUACGAAUUCGUACCAUAGAGAGGUUAUCGCCACCGAGAUCGGAAGAGCACACGU", "Kd": "4.94 ± 0.21"}
{"binder": "target 1 C4G,U11C (mixed) RNA 1: CACCCGUGCAAAAAUGCAGGGGUCUAAAACUGAGCGGAUAACCUCUCUAUGG RNA 2: GGGAAUGGAUCCACAUCUACGAAUUCGUACCAUAGAGAGGCUAUCCGGUCACCGAGAUCGGAAGAGCACACGU", "Kd": "9 ± 0.8"}
{"binder": "target 1 A16G,C22A (mixed) RNA 1: CACCCGUGCAAAAAUGCAGGGGUCUAAAACUGAGCGGAUAACCUCUCUAUGG RNA 2: GGGAAUGGAUCCACAUCUACGAAUUCGUAACAUAGGGAGGUUAUCCGCUCACCGAGAUCGGAAGAGCACACGU", "Kd": "51 ± 10"}
{"binder": "target 1 U3G,A9U (mixed) RNA 1: CACCCGUGCAAAAAUGCAGGGGUCUAAAACUGAGCGGAUAACCUCUCUAUGG RNA 2: GGGAAUGGAUCCACAUCUACGAAUUCGUACCAUAGAGAGGUUUUCCGCGCACCGAGAUCGGAAGAGCACACGU", "Kd": "7.5 ± 0.7"}
{"binder": "target 1 U3A,G5U (mixed) RNA 1: CACCCGUGCAAAAAUGCAGGGGUCUAAAACUGAGCGGAUAACCUCUCUAUGG RNA 2: GGGAAUGGAUCCACAUCUACGAAUUCGUACCAUAGAGAGGUUAUCCUCACACCGAGAUCGGAAGAGCACACGU", "Kd": "14.4 ± 1"}
{"binder": "target 1 insC 3' of 20,insC 3' of 11 (mixed) RNA 1: CACCCGUGCAAAAAUGCAGGGGUCUAAAACUGAGCGGAUAACCUCUCUAUGG RNA 2: GGGAAUGGAUCCACAUCUACGAAUUCGUACCACUAGAGAGGUCUAUCCGCUCACCGAGAUCGGAAGAGCACACGU", "Kd": "11.2 ± 1.1"}
{"binder": "target 1 G17A,C21A (mixed) RNA 1: CACCCGUGCAAAAAUGCAGGGGUCUAAAACUGAGCGGAUAACCUCUCUAUGG RNA 2: GGGAAUGGAUCCACAUCUACGAAUUCGUACAAUAAAGAGGUUAUCCGCUCACCGAGAUCGGAAGAGCACACGU", "Kd": "56 ± 7"}
{"binder": "target 1 insC 3' of 12,insG 3' of 8 (mixed) RNA 1: CACCCGUGCAAAAAUGCAGGGGUCUAAAACUGAGCGGAUAACCUCUCUAUGG RNA 2: GGGAAUGGAUCCACAUCUACGAAUUCGUACCAUAGAGAGGCUUAUGCCGCUCACCGAGAUCGGAAGAGCACACGU", "Kd": "15 ± 0.6"}
{"binder": "target 1 insU 3' of 22,insU 3' of 12 (mixed) RNA 1: CACCCGUGCAAAAAUGCAGGGGUCUAAAACUGAGCGGAUAACCUCUCUAUGG RNA 2: GGGAAUGGAUCCACAUCUACGAAUUCGUACUCAUAGAGAGGUUUAUCCGCUCACCGAGAUCGGAAGAGCACACGU", "Kd": "26.9 ± 1.6"}
{"binder": "target 1 insG 3' of 9,insU 3' of 4 (mixed) RNA 1: CACCCGUGCAAAAAUGCAGGGGUCUAAAACUGAGCGGAUAACCUCUCUAUGG RNA 2: GGGAAUGGAUCCACAUCUACGAAUUCGUACCAUAGAGAGGUUAGUCCGCUUCACCGAGAUCGGAAGAGCACACGU", "Kd": "12.2 ± 0.4"}
{"binder": "target 1 insC 3' of 17,insA 3' of 10 (mixed) RNA 1: CACCCGUGCAAAAAUGCAGGGGUCUAAAACUGAGCGGAUAACCUCUCUAUGG RNA 2: GGGAAUGGAUCCACAUCUACGAAUUCGUACCAUAGCAGAGGUUAAUCCGCUCACCGAGAUCGGAAGAGCACACGU", "Kd": "43.2 ± 3.4"}
